Earlier results on one substance are cited in article PMC5012591.

The Kd is the equilibrium constant for the complex coming apart.

The series deals with flagellar motor switch protein FliM (Escherichia coli) (UniProt P06974).
Sequence of UniProt P06974 (P06974 whole entry): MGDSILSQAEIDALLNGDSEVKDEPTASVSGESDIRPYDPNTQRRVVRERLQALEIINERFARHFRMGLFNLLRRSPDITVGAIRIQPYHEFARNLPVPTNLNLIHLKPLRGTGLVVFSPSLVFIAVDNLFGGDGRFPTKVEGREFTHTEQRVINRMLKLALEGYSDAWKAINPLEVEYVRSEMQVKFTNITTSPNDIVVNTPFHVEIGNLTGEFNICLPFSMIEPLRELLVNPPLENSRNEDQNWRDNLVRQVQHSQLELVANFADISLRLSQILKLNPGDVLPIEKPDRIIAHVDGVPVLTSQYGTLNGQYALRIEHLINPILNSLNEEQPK

Take CheY-P (from UniProt P0AE67): the Kd is 3.06 µM.
